Holding throughout (assay): prenyltransferase assay with E. coli membrane fraction, HPLC-UV product quantification
One data set concerns the target T1, Mpz10 (Streptomyces sp. SpC080624SC-11, UniProt A0A068CM06).
T1 construct: NcoI/EcoRI in pET-28a(+) (pPH23), apparently untagged; E. coli Rosetta2(DE3)pLysS membrane fraction
T1 sequence (A0A068CM06 1-331): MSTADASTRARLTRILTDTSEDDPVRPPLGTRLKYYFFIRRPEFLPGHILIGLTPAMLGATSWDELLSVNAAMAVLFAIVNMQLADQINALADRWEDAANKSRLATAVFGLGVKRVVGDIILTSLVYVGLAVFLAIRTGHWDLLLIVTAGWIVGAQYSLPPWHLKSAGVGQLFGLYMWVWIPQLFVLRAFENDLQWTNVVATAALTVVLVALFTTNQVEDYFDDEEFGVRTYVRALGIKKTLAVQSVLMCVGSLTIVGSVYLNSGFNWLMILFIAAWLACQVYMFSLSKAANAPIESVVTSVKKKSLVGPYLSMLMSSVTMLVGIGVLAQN
Format: biochemical. The following applies: read-out: apparent Km; DMAPP co-substrate, 10 mM MgCl2, 50 mM Tris-HCl pH 8.1, 30°C.

Substrate in data set [1]: Oc1cccc2nc3c(O)cccc3nc12
Format: biochemical, Streptomyces sp. SpC080624SC-11. The conditions noted are these: 0.5 mM DMAPP constant, 10 mM MgCl2, 50 mM Tris-HCl pH 8.1, 30°C.

Substrate in data set [2]: CC(C)=CCOP(=O)(O)OP(=O)(O)O
The format is biochemical, Streptomyces sp. SpC080624SC-11. The conditions noted are these: 0.2 mM 1,6-dihydroxyphenazine constant, 10 mM MgCl2, 50 mM Tris-HCl pH 8.1, 30°C.

Turning to `Oc1cccc2nc3ccccc3nc12` [1-hydroxyphenazine], the Km (as a rule, the substrate concentration at which the rate is half of its maximum) on Mpz10 turned out to be 9.8 µM.

B1: Mpz10 (Streptomyces sp. SpC080624SC-11) (protein)
chain: T1 sequence (A0A068CM06 1-331)
notes: NcoI/EcoRI in pET-28a(+) (pPH23), apparently untagged; E. coli Rosetta2(DE3)pLysS membrane fraction
Turning to B1, the Michaelis constant (Km) in data set [1] worked out at 53 µM; in data set [2], 153 µM.

The values above are taken from paper PMC4044012, “Genome-Based Discovery of a Novel Membrane-Bound 1,6-Dihydroxyphenazine Prenyltransferase from a Marine Actinomycete” (PLoS ONE, 2014).
